In paper PMC5523840 one finds binding signal data, which are given here for 1 molecule.

The series has as its target T1, TFCP2 (LBP-1c/CP2/LSF) (UniProt Q12800 1-502).
T1 sequence: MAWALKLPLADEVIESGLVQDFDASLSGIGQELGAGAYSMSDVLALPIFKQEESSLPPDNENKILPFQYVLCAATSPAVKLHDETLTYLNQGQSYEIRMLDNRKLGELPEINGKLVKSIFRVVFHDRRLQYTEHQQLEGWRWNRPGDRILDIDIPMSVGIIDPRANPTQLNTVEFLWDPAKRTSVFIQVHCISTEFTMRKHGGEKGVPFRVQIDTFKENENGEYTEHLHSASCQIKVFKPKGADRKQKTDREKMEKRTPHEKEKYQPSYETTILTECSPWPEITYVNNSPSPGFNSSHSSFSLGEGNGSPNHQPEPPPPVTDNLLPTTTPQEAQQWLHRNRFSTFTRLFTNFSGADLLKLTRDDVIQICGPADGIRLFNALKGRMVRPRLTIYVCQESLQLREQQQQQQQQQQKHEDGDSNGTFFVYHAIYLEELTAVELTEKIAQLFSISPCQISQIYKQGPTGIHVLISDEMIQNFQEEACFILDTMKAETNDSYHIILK
Briefly: EMSA.

B1: rs2830077[A] (dsDNA)
DNA 1: GACACGCTGACTTCCAGGCAAAAGCCAGGCACAAGAGAAGC
DNA 2: GCTTCTCTTGTGCCTGGCTTTTGCCTGGAAGTCAGCGTGTC
Turning to B1, the binding signal is 1 fold band intensity (reference for the C allele, 46% greater).
